Laboratory results taken from patent US7470669B2, “Isolated polypeptide comprising a leptin fragment” (Serono Genetics Institute, S.A., priority 1999, dated 2008).

Key:
[1] = system: LSR; assay: 125I-chylomicron binding to primary rat hepatocytes; format: cell-based; settings: 20 ng/mL leptin with 0.5 mM oleate
Description: FIGS. 6A, 6B, and 6C show the effect of leptin on ^125I-LDL and ^125I-chylomicron binding to LSR in primary cultures of rat hepatocytes. For FIG. 6A, primary cultures of rat hepatocytes (48 hours after plating) were incubated at 37° C. for 30 min in the absence (□) or presence (▪) of 50 ng/mL leptin in Buffer A, followed by a 20 min incubation at 37° C. with 0.5 mM oleate. The cells were then washed with ice-cold PBS, precooled for 10 min, and then incubated for 1 h at 4° C. with increasing concentrations of ^125I-LDL in Buffer A. Cells were washed, were lysed in 0.1 N NaOH and were counted for radioactivity. Results are shown as the mean of duplicate determinations. For FIG. 6B, primary cultures of rat hepatocytes were incubated at 37° C. for 30 min with or without 20 ng/mL leptin followed by incubation at 37° C. for 4 h with 6 μg protein/mL ^125I-chylomicrons in the absence or presence of 0.5 mM oleate in Buffer A. The cells were then washed and the ^125I-chylomicrons bound to the cell surface were released into the media by incubation with 10 mM suramin. The media was recovered and the radioactivity was measured. Results are shown as the mean±SD of six determinations. […] The amount of ^125I-chylomicrons bound was determined, and results are shown as means±SD of triplicate (irrelevant) or quadruplicate (anti-LSR) determinations. […]

[2] = system: LSR; assay: Ligand blot of 125I-leptin on LSR complexes immunoprecipitated from PLC cells; format: binding, human; settings: PLC cell lysates; complexes of 200 and 230 kDa
Description: FIGS. 4A, 4B, 4C, and 4D show LSR binding and degradation of ^125I-leptin in human hepatocytes, and the effect of 81B anti-LSR antibody. For FIG. 4A, PLC cells were lysed (3-T175 cm^2 flasks per condition) and immunoprecipitated with irrelevant or 81B anti-serum. The immunoprecipitates were washed, were separated on 10% SDS-polyacrylamide gels under nondenaturing conditions, and were transferred to nitrocellulose. Ligand blots using ^125I-leptin were then performed as described in FIG. 2. For FIG. 4B, confluent monolayers of PLC cells were incubated at 37° C. for 30 min with 100 nM insulin, were washed, and then were incubated for 30 min at room temperature in the presence of anti-LSR peptide 81B antibody (▪), or irrelevant (□) IgG. After this, the cells were incubated at 37° C. for 2 h with increasing concentrations of ^125I-leptin in Buffer A. The monolayers were washed, and the amount of ^125I-leptin degraded was determined as described herein. Results are shown as the mean of duplicate (irrelevant IgG) or triplicate (anti-LSR peptide IgG) determinations. FIG. 4C is a schematic diagram of the motifs found from the predicted protein sequence of LSR α cDNA. […] After washing and incubation with goat-anti-rabbit FITC-conjugated antibody, the cells were fixed and analyzed by flow cytometry using a FACSCalibur (Becton Dickinson). […]

## leptin: plasma protein of 16 kDa produced by adipocytes; recombinant human or mouse leptin, species depends on the experiment
[1]
  binding of chylomicrons to rat hepatocytes: additive stimulatory effect
[2]
  binding of 125I-leptin to multimeric complexes precipitated by the 81B antibody: binds directly
